Here are results for three molecules from patent US20190111164A1 (published 2019).

As a reminder, the EC50 is the concentration giving half of the maximal effect. Higher therefore signals lower potency in that assay.

The labels stand for the following.
B1: 2F3#633 (antibody, V domains shown)
VH: EVQLLESGGGLVQPGGSLRLSCAASGFTFDSYAMSWVRQAPGKGLEWVSAISGSGASTYYADSVKGRFSISRDNSKNTLYLQMNSLRAEDTAVYYCAIRREYSGYTPFDYWGQGTLVTVSS
VL: DIVMTQTPSSLSASVGDRVTITCRASQGISSWLAWYQQKPEKAPRSLIYAASSLQSGVPSRFSGSGSGTDFTLTISSLQPEDFATYYCQQYISYPYTFGQGTKLEIK
B2: 2F3#6 (antibody, V domains shown)
VH: QVQLLESGGGLVQPGGSLRLSCAASGFTFDSYAMSWVRQAPGKGLEWVSAISGSGASTYYADSVKGRFSISRDNSKNTLYLQMNSLRAEDTAVYYCAIRREYSGYAPFDYWGQGTLVIVSS
VL: DIVMTQTPSSLSASVGDRVTITCRASQGISSWLAWYQQKPEKAPRSLIYAASSLQSGVPSRFSGSGSGTDFTLTISSLQPEDFATYYCQQYISYPYTFGQGTKLEIK
B3: 2F3#1733 (antibody, V domains shown)
VH: QITLRESGGGLVQPGGSLRLSCAASGFTFDSYAMSWVRQAPGKGLEWVSAISGSGHSTYYADSVKGRFSISRDNSKNTLYLQMNNLRAEDTAVYYCAIRREYSGYTPFDYWGQGTLVTVSS
VL: DIVMTQTPSSLSASVGDRVTITCRASQGISSWLAWYQQKPEKAPRSLIYAASSLQSGVPSRFSGSGSGTDFTLTISSLQPEDFATYYCQQYISYPYTFGQGTKLEIK

For the assay, the target named is dBSM (bovine). In words: ELISA.
For B1, the concentration giving a half-maximal response (EC50) turned out to be 8.72 nM.

B2 gave a half-maximal effective concentration (EC50) of 24.4 nM.

Take B3: the EC50 was 13.6 nM.
